# Test results published in patent publication US20100015650.
# T1: BRB1 tyrosine kinase substrate peptide
# T1 chain: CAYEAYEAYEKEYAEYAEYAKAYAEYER
# Target: T1, BRB1 tyrosine kinase substrate peptide
Protein,Signal to Noise ratio with BRB1 Peptide (TR-FRET kinase assay; kinase 4 nM),also measured
TNK1 (protein) MLPEAGSLWLLKLLRDIQLAQFYWPILEELNVTRPEHFDFVKPEDLDGIGMGRPAQRRLSEALKRLRSGPKSKNWVYKILGGFAPEHKEPTLPSDSPRHLPEPEGGLKCLIPEGAVCRGELLGSGCFGVVHRGLWTLPSGKSVPVAVKSLRVGPEGPMGTELGDFLREVSVMMNLEHPHVLRLHGLVLGQPLQMVMELAPLGSLHARLTAPAPTPPLLVALLCLFLRQLAGAMAYLGARGLVHRDLATRNLLLASPRTIKVADFGLVRPLGGARGRYVMGGPRPIPYAWCAPESLRHGAFSSASDVWMFGVTLWEMFSGGEEPWAGVPPYLILQRLEDRARLPRPPLCSRALYSLALRCWAPHPADRPSFSHLEGLLQEAGPSEACCVRDVTEPGALRMETGDPITVIEGSSSFHSPDSTIWKGQNGRTFKVGSFPASAVTLADAGGLPATRPVHRGTPARGDQHPGSIDGDRKKANLWDAPPARGQRRNMPLERMKGISRSLESVLSLGPRPTGGGSSPPEIRQARAVPQGPPGLPPRPPLSSSSPQPSQPSRERLPWPKRKPPHNHPMGMPGARKAAALSGGLLSDPELQRKIMEVELSVHGVTHQECQTALGATGGDVVSAIRNLKVDQLFHLSSRSRADCWRILEHYQWDLSAASRYVLARP,–,Signal to Noise Ratio with BRB1 Peptide (TR-FRET kinase assay; kinase 1 nM): 6.8
AXL (protein) HRRKKETRYGEVFEPTVERGELVVRYRVRKSYSRRTTEATLNSLGISEELKEKLRDVMVDRHKVALGKTLGEGEFGAVMEGQLNQDDSILKVAVKTMKIAICTRSELEDFLSEAVCMKEFDHPNVMRLIGVCFQGSERESFPAPVVILPFMKHGDLHSFLLYSRLGDQPVYLPTQMLVKFMADIASGMEYLSTKRFIHRDLAARNCMLNENMSVCVADFGLSKKIYNGDYYRQGRIAKMPVKWIAIESLADRVYTSKSDVWSFGVTMWEIATRGQTPYPGVENSEIYDYLRQGNRLKQPADCLDGLYALMSRCWELNPQDRPSFTELREDLENTLKALPPAQEPDEILYVNMDEGGGYPEPPGAAGGADPPTQPDPKDSCSCLTAAEVHPAGRYVLCPSTTPSPAQPADRGSPAAPGQEDGA,1.8,–
DDR1 (protein) RRLLSKAERRVLEEELTVHLSVPGDTILINNRPGPREPPPYQEPRPRGNPPHSAPCVPNGSALLLSNPAYRLLLATYARPPRGPGPPTPAWAKPTNTQAYSGDYMEPEKPGAPLLPPPPQNSVPHYAEADIVTLQGVTGGNTYAVPALPPGAVGDGPPRVDFPRSRLRFKEKLGEGQFGEVHLCEVDSPQDLVSLDFPLNVRKGHPLLVAVKILRPDATKNARNDFLKEVKIMSRLKDPNIIRLLGVCVQDDPLCMITDYMENGDLNQFLSAHQLEDKAAEGAPGDGQAAQGPTISYPMLLHVAAQIASGMRYLATLNFVHRDLATRNCLVGENFTIKIADFGMSRNLYAGDYYRVQGRAVLPIRWMAWECILMGKFTTASDVWAFGVTLWEVLMLCRAQPFGQLTDEQVIENAGEFFRDQGRQVYLSRPPACPQGLYELMLRCWSRESEQRPPFSQLHRFLAEDALNTV,–,Signal to Noise ratio with BRB1 Peptide (TR-FRET kinase assay; kinase 0.5 nM): 1
ALK (protein) VYRRKHQELQAMQMELQSPEYKLSKLRTSTIMTDYNPNYCFAGKTSSISDLKEVPRKNITLIRGLGHGAFGEVYEGQVSGMPNDPSPLQVAVKTLPEVCSEQDELDFLMEALIISKFNHQNIVRCIGVSLQSLPRFILLELMAGGDLKSFLRETRPRPSQPSSLAMLDLLHVARDIACGCQYLEENHFIHRDIAARNCLLTCPGPGRVAKIGDFGMARDIYRASYYRKGGCAMLPVKWMPPEAFMEGIFTSKTDTWSFGVLLWEIFSLGYMPYPSKSNQEVLEFVTSGGRMDPPKNCPGPVYRIMTQCWQHQPEDRPNFAIILERIEYCTQDPDVINTALPIEYGPLVEEEEKVPVRPKDPEGVPPLLVSQQAKREEERSPAAPPPLPTTSSGKAAKKPTAAEISVRVPRGPAVEGGHVNMAFSQSNPPSELHKVHGSRNKPTSLWNPTYGSWFTEKPTKKNNPIAKKEPHDRGNLGLEGSCTVPPNVATGRLPGASLLLEPSSLTANMKEVPLFRLRHFPCGNVNYGYQQQGLPLEAATAPGAGHYEDTILKSKNSMNQPGP,8.8,–
ZAP70 (protein) MPDPAAHLPFFYGSISRAEAEEHLKLAGMADGLFLLRQCLRSLGGYVLSLVHDVRFHHFPIERQLNGTYAIAGGKAHCGPAELCEFYSRDPDGLPCNLRKPCNRPSGLEPQPGVFDCLRDAMVRDYVRQTWKLEGEALEQAIISQAPQVEKLIATTAHERMPWYHSSLTREEAERKLYSGAQTDGKFLLRPRKEQGTYALSLIYGKTVYHYLISQDKAGKYCIPEGTKFDTLWQLVEYLKLKADGLIYCLKEACPNSSASNASGAAAPTLPAHPSTLTHPQRRIDTLNSDGYTPEPARITSPDKPRPMPMDTSVYESPYSDPEELKDKKLFLKRDNLLIADIELGCGNFGSVRQGVYRMRKKQIDVAIKVLKQGTEKADTEEMMREAQIMHQLDNPYIVRLIGVCQAEALMLVMEMAGGGPLHKFLVGKREEIPVSNVAELLHQVSMGMKYLEEKNFVHRDLAARNVLLVNRHYAKISDFGLSKALGADDSYYTARSAGKWPLKWYAPECINFRKFSSRSDVWSYGVTMWEALSYGQKPYKKMKGPEVMAFIEQGKRMECPPECPPELYALMSDCWIYKWEDRPDFLTVEQRMRACYYSLASKVEGPPGSTQKAEAACA,7.6,–
TXK (protein) MILSSYNTIQSVFCCCCCCSVQKRQMRTQISLSTDEELPEKYTQRRRPWLSQLSNKKQSNTGRVQPSKRKPLPPLPPSEVAEEKIQVKALYDFLPREPCNLALRRAEEYLILEKYNPHWWKARDRLGNEGLIPSNYVTENKITNLEIYEWYHRNITRNQAEHLLRQESKEGAFIVRDSRHLGSYTISVFMGARRSTEAAIKHYQIKKNDSGQWYVAERHAFQSIPELIWYHQHNAAGLMTRLRYPVGLMGSCLPATAGFSYEKWEIDPSELAFIKEIGSGQFGVVHLGEWRSHIQVAIKAINEGSMSEEDFIEEAKVMMKLSHSKLVQLYGVCIQRKPLYIVTEFMENGCLLNYLRENKGKLRKEMLLSVCQDICEGMEYLERNGYIHRDLAARNCLVSSTCIVKISDFGMTRYVLDDEYVSSFGAKFPIKWSPPEVFLFNKYSSKSDVWSFGVLMWEVFTEGKMPFENKSNLQVVEAISEGFRLYRPHLAPMSIYEVMYSCWHEKPEGRPTFAELLRAVTEIAETW,–,Signal to Noise Ratio with BRB1 Peptide (TR-FRET kinase assay; kinase 3 nM): 5.9
TYK2 (protein) PHNLADVLTVNPDSPASDPTVFHKRYLKKIRDLGEGHFGKVSLYCYDPTNDGTGEMVAVKALKADCGPQHRSGWKQEIDILRTLYHEHIIKYKGCCEDQGEKSLQLVMEYVPLGSLRDYLPRHSIGLAQLLLFAQQICEGMAYLHAQHYIHRDLAARNVLLDNDRLVKIGDFGLAKAVPEGHEYYRVREDGDSPVFWYAPECLKEYKFYYASDVWSFGVTLYELLTHCDSSQSPPTKFLELIGIAQGQMTVLRLTELLERGERLPRPDKCPCEVYHLMKNCWETEASFRPTFENLIPILKTVHEKYQGQAPSVFSVC,7.3,–
DDR2 (protein) RQFWQKMLEKASRRMLDDEMTVSLSLPSDSSMFNNNRSSSPSEQGSNSTYDRIFPLRPDYQEPSRLIRKLPEFAPGEEESGCSGVVKPVQPSGPEGVPHYAEADIVNLQGVTGGNTYSVPAVTMDLLSGKDVAVEEFPRKLLTFKEKLGEGQFGEVHLCEVEGMEKFKDKDFALDVSANQPVLVAVKMLRADANKNARNDFLKEIKIMSRLKDPNIIHLLAVCITDDPLCMITEYMENGDLNQFLSRHEPPNSSSSDVRTVSYTNLKFMATQIASGMKYLSSLNFVHRDLATRNCLVGKNYTIKIADFGMSRNLYSGDYYRIQGRAVLPIRWMSWESILLGKFTTASDVWAFGVTLWETFTFCQEQPYSQLSDEQVIENTGEFFRDQGRQTYLPQPAICPDSVYKLMLSCWRRDTKNRPSFQEIHLLLLQQGDE,–,Signal to Noise ratio with BRB1 Peptide (TR-FRET kinase assay; kinase 0.5 nM): 1
